The supplement of paper PMC10567573

B1: APBB1IP (parent)
chain: FNYSVGFKDLNESLNALEDQDLDA
B2: NP_015628.1 (parent)
chain: EQRNSRWNTVLRAVKAKTHHLEP

Variants of: B1
Assay: protein stability index of a GFP-peptide fusion (GPS, HEK-293T) (PSI 1-6); higher = more stable
Settings: c terminus: a fixed tail appended

Variant | protein stability index
Y3I | 4.21
Y3L | 4.52
Y3K | 5.17
Y3M | 4.4
Y3A | 5.06
Y3E | 5.43
Y3W | 3.87
Y3N | 5.12
Y3C | 4.74
Y3F | 3.71
Y3R | 5.36
Y3V | 3.54
Y3Q | 5.36
Y3H | 4.07
Y3T | 5.54
Y3G | 4.82
Y3P | 5.15
Y3S | 4.76
Y3D | 4.89
S4I | 3.76
S4K | 4.02
S4F | 3.24
S4W | 2.56
S4N | 4.61
S4A | 4.53

Variant | protein stability index
S4M | 4.23
S4G | 4.88
S4C | 4.31
S4L | 3.71
S4D | 5.11
S4Q | 5.1
S4H | 4.79
S4E | 5.53
S4T | 4.62
S4P | 3.29
S4R | 4.82
S4V | 3.72
F1M | 5.31
F1K | 4.39
F1Y | 4.91
F1S | 4.44
F1P | 5.21
F1L | 4.7
F1R | 5.42
F1E | 5.53
F1N | 5.51
F1W | 4.53
F1C | 4.79
F1T | 5.35
F1H | 5.05

Variant | protein stability index
F1G | 4.72
F1V | 4.66
F1A | 5
F1Q | 5.38
F1I | 4.43
F1D | 5.74
N2T | 2.23
N2Q | 2.88
N2I | 4.43
N2Y | 2.72
N2K | 4.11
N2F | 3.07
N2G | 4.39
N2C | 2.18
N2P | 2.44
N2M | 1.99
N2V | 2.96
N2L | 2.01
N2E | 4.45
N2D | 5.38
N2H | 1.98
N2S | 2.64
N2A | 2.07
N2R | 3.26
N2W | 2.4

Variants of: B2
Assay: as above
Settings: c terminus: native

Variant | protein stability index
T18W | 3.57
T18Y | 2.84
T18Q | 3.34
T18R | 3.11
T18S | 2.29
T18V | 3.12
P23I | 4.19
P23M | 4.09
P23D | 4.92
P23Y | 4.4
P23V | 4.13
P23F | 4.51
P23E | 3.95
P23H | 4.88
P23Q | 5.08
P23R | 3.9
P23L | 4.39
P23A | 4.32
P23G | 4.74
P23N | 4.98
P23K | 5.17
P23T | 4.13
H20I | 3.15

Variant | protein stability index
H20K | 4.01
H20S | 2.66
H20G | 1.9
H20Y | 3.25
H20E | 3.19
H20W | 3.46
H20N | 3.47
H20V | 3.46
H20F | 3.22
H20L | 3.6
H20D | 3.09
H20Q | 2.89
H20P | 3.89
H20T | 3.27
H20A | 2.81
H20C | 2.23
H19K | 3.57
H19E | 3.75
H19F | 3.66
H19Y | 3.07
H19R | 2.96
H19W | 3.54
H19I | 3.44

Variant | protein stability index
H19V | 3.31
H19G | 3.86
H19Q | 3.73
H19L | 3.43
H19T | 3.74
H19A | 3.34
H19N | 3.56
H19P | 2.65
H19D | 3.81
H19M | 3.37
L21D | 4.04
L21E | 4.79
L21A | 4.09
L21W | 4.04
L21N | 4.59
L21Q | 4.55
L21R | 2.08
L21M | 3.01
L21Y | 3.81
L21G | 3.67
L21V | 4.29
L21I | 3.59
L21F | 3.82

Variant | protein stability index
L21H | 4.16
L21P | 4.27
L21K | 4.92
L21T | 4.26
E22K | 4.85
E22L | 3.02
E22S | 3.09
E22Y | 3.91
E22G | 3.09
E22C | 2.63
E22N | 4.48
E22R | 2.26
E22D | 3.21
E22T | 3.23
E22A | 2.87
E22M | 2.84
E22F | 3.55
E22I | 2.45
E22V | 3.49
E22P | 4.21
E22W | 3.6
E22Q | 3.28
E22H | 3.45
